Five molecules from US20130251640A1 (METHODIST HOSPITAL SYSTEM, published 2013) can be followed below.

Common to all, as to experiment: cell-based or functional assay
In assay [1] the target is T1, Cathepsin E (purchased from Calbiochem, EMD Bioscience).
T1 sequence (P14091 whole entry, species assumed, looked up): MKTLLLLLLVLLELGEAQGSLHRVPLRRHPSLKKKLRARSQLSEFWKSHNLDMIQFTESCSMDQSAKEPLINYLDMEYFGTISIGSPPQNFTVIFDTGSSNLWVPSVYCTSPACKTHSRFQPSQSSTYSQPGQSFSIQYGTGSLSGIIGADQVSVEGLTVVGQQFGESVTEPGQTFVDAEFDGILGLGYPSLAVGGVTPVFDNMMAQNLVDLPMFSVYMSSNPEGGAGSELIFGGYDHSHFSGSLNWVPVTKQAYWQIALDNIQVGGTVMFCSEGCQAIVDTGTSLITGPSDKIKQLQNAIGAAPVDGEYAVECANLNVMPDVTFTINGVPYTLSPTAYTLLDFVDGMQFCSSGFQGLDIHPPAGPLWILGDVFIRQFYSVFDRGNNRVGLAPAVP

The target in assay [2] is Cathepsin B (purchased from Calbiochem, EMD Bioscience).
The target in assay [3] is Cathepsin S (purchased from Calbiochem, EMD Bioscience).

Non-standard residues stand in square brackets, D forms with d. *: point of attachment. Dnp = O=[N+]([O-])c1ccc(*)c([N+](=O)[O-])c1; Mca = COc1ccc2c(CC(=O)*)cc(=O)oc2c1

B1: substrate b, Mca-Gly-Pro-Ile-Leu-Phe**Phe-Arg-Leu-Gly-Lys(Dnp)-DArg-CONH2 (peptide)
peptide: Mca-GPILFFRLGK(Dnp)[dR]-NH2
SMILES: CC[C@H](C)[C@H](NC(=O)[C@@H]1CCCN1C(=O)CNC(=O)Cc1cc(=O)oc2cc(OC)ccc12)C(=O)N[C@@H](CC(C)C)C(=O)N[C@@H](Cc1ccccc1)C(=O)N[C@@H](Cc1ccccc1)C(=O)N[C@@H](CCCNC(=N)N)C(=O)N[C@@H](CC(C)C)C(=O)NCC(=O)N[C@@H](CCCCNc1ccc([N+](=O)[O-])cc1[N+](=O)[O-])C(=O)N[C@H](CCCNC(=N)N)C(N)=O
Take B1: the “net fluorescence signal ratio (Cath E/Cath D) immediately after incubation” value in assay [1] came to 1.6 fold.

B2: substrate d, Mca-Ala-Gly-Phe-Ser-Leu**Gly-Pro-Lys(Dnp)-DArg-CONH2 (peptide)
peptide: Mca-AGFSLGPK(Dnp)[dR]-NH2
SMILES: COc1ccc2c(CC(=O)N[C@@H](C)C(=O)NCC(=O)N[C@@H](Cc3ccccc3)C(=O)N[C@@H](CO)C(=O)N[C@@H](CC(C)C)C(=O)NCC(=O)N3CCC[C@H]3C(=O)N[C@@H](CCCCNc3ccc([N+](=O)[O-])cc3[N+](=O)[O-])C(=O)N[C@H](CCCNC(=N)N)C(N)=O)cc(=O)oc2c1
In the case of B2, in assay [1], the “net fluorescence signal ratio (Cath E/Cath D) at 10 minutes” value turned out to be 4 fold, the “net fluorescence signal ratio (Cath E/Cath D) at 45 minutes” value worked out at 2.3 fold and the “net fluorescence signal ratio (Cath E/Cath D) at the initial time point” value came out at 12 fold.

B3: substrate e, Mca-Ala-Gly-Phe-Ser-Leu**Pro-Ala-Lys(Dnp)-D-Arg-CONH2 (peptide)
peptide: Mca-AGFSLPAK(Dnp)[dR]-NH2
SMILES: COc1ccc2c(CC(=O)N[C@@H](C)C(=O)NCC(=O)N[C@@H](Cc3ccccc3)C(=O)N[C@@H](CO)C(=O)N[C@@H](CC(C)C)C(=O)N3CCC[C@H]3C(=O)N[C@@H](C)C(=O)N[C@@H](CCCCNc3ccc([N+](=O)[O-])cc3[N+](=O)[O-])C(=O)N[C@H](CCCNC(=N)N)C(N)=O)cc(=O)oc2c1
B3: the “net fluorescence signal ratio (Cath E/Cath D) at 1 minute” value in assay [1] was determined as 265 fold. Besides, the “fluorescence signal increase relative to that observed with Cath E, 90 minutes” value in assay [2] and in assay [3] was less than 15% throughout.

B4: substrate a, Mca-Gly-Ser-Pro-Ala-Phe**Leu-Ala-Lys(Dnp)-DArg-CONH2 (peptide)
peptide: Mca-GSPAFLAK(Dnp)[dR]-NH2
SMILES: COc1ccc2c(CC(=O)NCC(=O)N[C@@H](CO)C(=O)N3CCC[C@H]3C(=O)N[C@@H](C)C(=O)N[C@@H](Cc3ccccc3)C(=O)N[C@@H](CC(C)C)C(=O)N[C@@H](C)C(=O)N[C@@H](CCCCNc3ccc([N+](=O)[O-])cc3[N+](=O)[O-])C(=O)N[C@H](CCCNC(=N)N)C(N)=O)cc(=O)oc2c1
As for B4, in assay [1], the “net fluorescence signal ratio (Cath E/Cath D) at 10 minutes” value came to 4.5 fold, the “net fluorescence signal ratio (Cath E/Cath D) at 45 minutes” value is 1.6 fold and the “net fluorescence signal ratio (Cath E/Cath D) at the initial time point” value came out at 17.9 fold.

B5: substrate c, Mca-Gly-Pro-Ile-Leu-Phe**Phe-Arg-Leu-Lys(Dnp)-DArg-CONH2 (peptide)
peptide: Mca-GPILFFRLK(Dnp)[dR]-NH2
SMILES: CC[C@H](C)[C@H](NC(=O)[C@@H]1CCCN1C(=O)CNC(=O)Cc1cc(=O)oc2cc(OC)ccc12)C(=O)N[C@@H](CC(C)C)C(=O)N[C@@H](Cc1ccccc1)C(=O)N[C@@H](Cc1ccccc1)C(=O)N[C@@H](CCCNC(=N)N)C(=O)N[C@@H](CC(C)C)C(=O)N[C@@H](CCCCNc1ccc([N+](=O)[O-])cc1[N+](=O)[O-])C(=O)N[C@H](CCCNC(=N)N)C(N)=O
B5: in assay [1], the “net fluorescence signal ratio (Cath E/Cath D) immediately after incubation” value is 1.5 fold.
